According to article PMC4255524:
Values belong to the molecule of their own block, whether it stands above or below them.

Experiments:
[1] = target: N-terminal domain of Chlamydomonas reinhardtii BBS1 (residues 1–425) (Chlamydomonas reinhardtii); test: ITC
[2] = target: N-terminal domain of Homo sapiens BBS1 with the patient mutation E234K (Homo sapiens) (UniProt Q8NFJ9); test: ITC
UniProt Q8NFJ9, sequence (Q8NFJ9 1-417 E234K): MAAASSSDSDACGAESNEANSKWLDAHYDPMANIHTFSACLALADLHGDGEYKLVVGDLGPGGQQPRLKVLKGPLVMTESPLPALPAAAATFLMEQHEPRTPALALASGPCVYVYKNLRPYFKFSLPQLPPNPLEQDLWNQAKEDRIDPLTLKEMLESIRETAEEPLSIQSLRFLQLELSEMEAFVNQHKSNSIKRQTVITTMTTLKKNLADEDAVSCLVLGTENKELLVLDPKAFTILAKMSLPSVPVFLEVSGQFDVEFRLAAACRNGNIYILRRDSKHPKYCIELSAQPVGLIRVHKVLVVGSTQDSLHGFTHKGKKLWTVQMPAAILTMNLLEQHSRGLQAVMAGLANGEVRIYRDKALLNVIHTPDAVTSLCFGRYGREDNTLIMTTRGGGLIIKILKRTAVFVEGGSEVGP

Molecule: Chlamydomonas reinhardtii ARL6ΔN (residues 1–15 deleted), GTP-bound (domain or fragment)
Kd [1]: 350 nM
stoichiometry N [1]: 1

Kd [2]: 350 nM
B1: untagged Homo sapiens ARL6 Q73L ΔN (domain or fragment)
chain: KEVHVLCLGLDNSGKTTIINKLKPSNAQSQNILPTIGFSIEKFKSSSLSFTVFDMSGLGRYRNLWEHYYKEGQAIIFVIDSSDRLRMVVAKEELDTLLNHPDIKHRRIPILFFANKMDLRDAVTSVKVSQLLCLENIKDKPWHICASDAIKGEGLQEGVDWLQDQIQTVKT
